Reference: PMC1868598

B1: human ClC-6 (hClC-6a): AAAA-hClC-6 (protein)
parent chain: MAGCRGSLCCCCRWCCCCGERETRTPEELTILGETQEEEDEILPRKDYESLDYDRCINDPYLEVLETMDNKKGRRYEAVKWMVVFAIGVCTGLVGLFVDFFVRLFTQLKFGVVQTSVEECSQKGCLALSLLELLGFNLTFVFLASLLVLIEPVAAGSGIPEVKCYLNGVKVPGIVRLRTLLCKVLGVLFSVAGGLFVEKEGPMIHSGSVVGAGLPQFQSISLRKIQFNFPYFRSDRDKRDFVSAGAAAGVAAAFGAPIGGTLFSLEEGSSFWNQGLTWKVLFCSMSATFTLNFFRSGIQFGSWGSFQLPGLLNFGEFKCSDSDKKCHLWTAMDLGFFVVMGVIGGLLGATFNCLNKRLAKYRMRNVHPKPKLVRVLESLLVSLVTTVVVFVASMVLGECRQMSSSSQIGNDSFQLQVTEDVNSSIKTFFCPNDTYNDMATLFFNPQESAILQLFHQDGTFSPVTLALFFVLYFLLACWTYGISVPSGLFVPSLLCGAAFGRLVANVLKSYIGLGHIYSGTFALIGAAAFLGGVVRMTISLTVILIESTNEITYGLPIMVTLMVAKWTGDFFNKGIYDIHVGLRGVPLLEWETEVEMDKLRASDIMEPNLTYVYPHTRIQSLVSILRTTVHHAFPVVTENRGNEKEFMKGNQLISNNIKFKKSSILTRAGEQRKRSQSMKSYPSSELRNMCDEHIASEEPAEKEDLLQQMLERRYTPYPNLYPDQSPSEDWTMEERFRPLTFHGLILRSQLVTLLVRGVCYSESQSSASQPRLSYAEMAEDYPRYPDIHDLDLTLLNPRMIVDVTPYMNPSPFTVSPNTHVSQVFNLFRTMGLRHLPVVNAVGEIVGIITRHNLTYEFLQARLRQHYQTI
B2: human ClC-6 (hClC-6a): ANN-hClC-6: N410A (protein)
parent chain: MAGCRGSLCCCCRWCCCCGERETRTPEELTILGETQEEEDEILPRKDYESLDYDRCINDPYLEVLETMDNKKGRRYEAVKWMVVFAIGVCTGLVGLFVDFFVRLFTQLKFGVVQTSVEECSQKGCLALSLLELLGFNLTFVFLASLLVLIEPVAAGSGIPEVKCYLNGVKVPGIVRLRTLLCKVLGVLFSVAGGLFVEKEGPMIHSGSVVGAGLPQFQSISLRKIQFNFPYFRSDRDKRDFVSAGAAAGVAAAFGAPIGGTLFSLEEGSSFWNQGLTWKVLFCSMSATFTLNFFRSGIQFGSWGSFQLPGLLNFGEFKCSDSDKKCHLWTAMDLGFFVVMGVIGGLLGATFNCLNKRLAKYRMRNVHPKPKLVRVLESLLVSLVTTVVVFVASMVLGECRQMSSSSQIGNDSFQLQVTEDVNSSIKTFFCPNDTYNDMATLFFNPQESAILQLFHQDGTFSPVTLALFFVLYFLLACWTYGISVPSGLFVPSLLCGAAFGRLVANVLKSYIGLGHIYSGTFALIGAAAFLGGVVRMTISLTVILIESTNEITYGLPIMVTLMVAKWTGDFFNKGIYDIHVGLRGVPLLEWETEVEMDKLRASDIMEPNLTYVYPHTRIQSLVSILRTTVHHAFPVVTENRGNEKEFMKGNQLISNNIKFKKSSILTRAGEQRKRSQSMKSYPSSELRNMCDEHIASEEPAEKEDLLQQMLERRYTPYPNLYPDQSPSEDWTMEERFRPLTFHGLILRSQLVTLLVRGVCYSESQSSASQPRLSYAEMAEDYPRYPDIHDLDLTLLNPRMIVDVTPYMNPSPFTVSPNTHVSQVFNLFRTMGLRHLPVVNAVGEIVGIITRHNLTYEFLQARLRQHYQTI
B3: human ClC-6 (hClC-6a): NAN-hClC-6: N422A (protein)
parent chain: MAGCRGSLCCCCRWCCCCGERETRTPEELTILGETQEEEDEILPRKDYESLDYDRCINDPYLEVLETMDNKKGRRYEAVKWMVVFAIGVCTGLVGLFVDFFVRLFTQLKFGVVQTSVEECSQKGCLALSLLELLGFNLTFVFLASLLVLIEPVAAGSGIPEVKCYLNGVKVPGIVRLRTLLCKVLGVLFSVAGGLFVEKEGPMIHSGSVVGAGLPQFQSISLRKIQFNFPYFRSDRDKRDFVSAGAAAGVAAAFGAPIGGTLFSLEEGSSFWNQGLTWKVLFCSMSATFTLNFFRSGIQFGSWGSFQLPGLLNFGEFKCSDSDKKCHLWTAMDLGFFVVMGVIGGLLGATFNCLNKRLAKYRMRNVHPKPKLVRVLESLLVSLVTTVVVFVASMVLGECRQMSSSSQIGNDSFQLQVTEDVNSSIKTFFCPNDTYNDMATLFFNPQESAILQLFHQDGTFSPVTLALFFVLYFLLACWTYGISVPSGLFVPSLLCGAAFGRLVANVLKSYIGLGHIYSGTFALIGAAAFLGGVVRMTISLTVILIESTNEITYGLPIMVTLMVAKWTGDFFNKGIYDIHVGLRGVPLLEWETEVEMDKLRASDIMEPNLTYVYPHTRIQSLVSILRTTVHHAFPVVTENRGNEKEFMKGNQLISNNIKFKKSSILTRAGEQRKRSQSMKSYPSSELRNMCDEHIASEEPAEKEDLLQQMLERRYTPYPNLYPDQSPSEDWTMEERFRPLTFHGLILRSQLVTLLVRGVCYSESQSSASQPRLSYAEMAEDYPRYPDIHDLDLTLLNPRMIVDVTPYMNPSPFTVSPNTHVSQVFNLFRTMGLRHLPVVNAVGEIVGIITRHNLTYEFLQARLRQHYQTI
B4: human ClC-6 (hClC-6a): ANA-hClC-6: N410A/N432A (protein)
parent chain: MAGCRGSLCCCCRWCCCCGERETRTPEELTILGETQEEEDEILPRKDYESLDYDRCINDPYLEVLETMDNKKGRRYEAVKWMVVFAIGVCTGLVGLFVDFFVRLFTQLKFGVVQTSVEECSQKGCLALSLLELLGFNLTFVFLASLLVLIEPVAAGSGIPEVKCYLNGVKVPGIVRLRTLLCKVLGVLFSVAGGLFVEKEGPMIHSGSVVGAGLPQFQSISLRKIQFNFPYFRSDRDKRDFVSAGAAAGVAAAFGAPIGGTLFSLEEGSSFWNQGLTWKVLFCSMSATFTLNFFRSGIQFGSWGSFQLPGLLNFGEFKCSDSDKKCHLWTAMDLGFFVVMGVIGGLLGATFNCLNKRLAKYRMRNVHPKPKLVRVLESLLVSLVTTVVVFVASMVLGECRQMSSSSQIGNDSFQLQVTEDVNSSIKTFFCPNDTYNDMATLFFNPQESAILQLFHQDGTFSPVTLALFFVLYFLLACWTYGISVPSGLFVPSLLCGAAFGRLVANVLKSYIGLGHIYSGTFALIGAAAFLGGVVRMTISLTVILIESTNEITYGLPIMVTLMVAKWTGDFFNKGIYDIHVGLRGVPLLEWETEVEMDKLRASDIMEPNLTYVYPHTRIQSLVSILRTTVHHAFPVVTENRGNEKEFMKGNQLISNNIKFKKSSILTRAGEQRKRSQSMKSYPSSELRNMCDEHIASEEPAEKEDLLQQMLERRYTPYPNLYPDQSPSEDWTMEERFRPLTFHGLILRSQLVTLLVRGVCYSESQSSASQPRLSYAEMAEDYPRYPDIHDLDLTLLNPRMIVDVTPYMNPSPFTVSPNTHVSQVFNLFRTMGLRHLPVVNAVGEIVGIITRHNLTYEFLQARLRQHYQTI
B5: human ClC-6 (hClC-6a): NAA-hClC-6: N422A/N432A (protein)
parent chain: MAGCRGSLCCCCRWCCCCGERETRTPEELTILGETQEEEDEILPRKDYESLDYDRCINDPYLEVLETMDNKKGRRYEAVKWMVVFAIGVCTGLVGLFVDFFVRLFTQLKFGVVQTSVEECSQKGCLALSLLELLGFNLTFVFLASLLVLIEPVAAGSGIPEVKCYLNGVKVPGIVRLRTLLCKVLGVLFSVAGGLFVEKEGPMIHSGSVVGAGLPQFQSISLRKIQFNFPYFRSDRDKRDFVSAGAAAGVAAAFGAPIGGTLFSLEEGSSFWNQGLTWKVLFCSMSATFTLNFFRSGIQFGSWGSFQLPGLLNFGEFKCSDSDKKCHLWTAMDLGFFVVMGVIGGLLGATFNCLNKRLAKYRMRNVHPKPKLVRVLESLLVSLVTTVVVFVASMVLGECRQMSSSSQIGNDSFQLQVTEDVNSSIKTFFCPNDTYNDMATLFFNPQESAILQLFHQDGTFSPVTLALFFVLYFLLACWTYGISVPSGLFVPSLLCGAAFGRLVANVLKSYIGLGHIYSGTFALIGAAAFLGGVVRMTISLTVILIESTNEITYGLPIMVTLMVAKWTGDFFNKGIYDIHVGLRGVPLLEWETEVEMDKLRASDIMEPNLTYVYPHTRIQSLVSILRTTVHHAFPVVTENRGNEKEFMKGNQLISNNIKFKKSSILTRAGEQRKRSQSMKSYPSSELRNMCDEHIASEEPAEKEDLLQQMLERRYTPYPNLYPDQSPSEDWTMEERFRPLTFHGLILRSQLVTLLVRGVCYSESQSSASQPRLSYAEMAEDYPRYPDIHDLDLTLLNPRMIVDVTPYMNPSPFTVSPNTHVSQVFNLFRTMGLRHLPVVNAVGEIVGIITRHNLTYEFLQARLRQHYQTI
B6: human ClC-6 (hClC-6a): NNA-hClC-6: N432A (protein)
parent chain: MAGCRGSLCCCCRWCCCCGERETRTPEELTILGETQEEEDEILPRKDYESLDYDRCINDPYLEVLETMDNKKGRRYEAVKWMVVFAIGVCTGLVGLFVDFFVRLFTQLKFGVVQTSVEECSQKGCLALSLLELLGFNLTFVFLASLLVLIEPVAAGSGIPEVKCYLNGVKVPGIVRLRTLLCKVLGVLFSVAGGLFVEKEGPMIHSGSVVGAGLPQFQSISLRKIQFNFPYFRSDRDKRDFVSAGAAAGVAAAFGAPIGGTLFSLEEGSSFWNQGLTWKVLFCSMSATFTLNFFRSGIQFGSWGSFQLPGLLNFGEFKCSDSDKKCHLWTAMDLGFFVVMGVIGGLLGATFNCLNKRLAKYRMRNVHPKPKLVRVLESLLVSLVTTVVVFVASMVLGECRQMSSSSQIGNDSFQLQVTEDVNSSIKTFFCPNDTYNDMATLFFNPQESAILQLFHQDGTFSPVTLALFFVLYFLLACWTYGISVPSGLFVPSLLCGAAFGRLVANVLKSYIGLGHIYSGTFALIGAAAFLGGVVRMTISLTVILIESTNEITYGLPIMVTLMVAKWTGDFFNKGIYDIHVGLRGVPLLEWETEVEMDKLRASDIMEPNLTYVYPHTRIQSLVSILRTTVHHAFPVVTENRGNEKEFMKGNQLISNNIKFKKSSILTRAGEQRKRSQSMKSYPSSELRNMCDEHIASEEPAEKEDLLQQMLERRYTPYPNLYPDQSPSEDWTMEERFRPLTFHGLILRSQLVTLLVRGVCYSESQSSASQPRLSYAEMAEDYPRYPDIHDLDLTLLNPRMIVDVTPYMNPSPFTVSPNTHVSQVFNLFRTMGLRHLPVVNAVGEIVGIITRHNLTYEFLQARLRQHYQTI
B7: human ClC-6 (hClC-6a): AAN-hClC-6: N410A/N422A (protein)
parent chain: MAGCRGSLCCCCRWCCCCGERETRTPEELTILGETQEEEDEILPRKDYESLDYDRCINDPYLEVLETMDNKKGRRYEAVKWMVVFAIGVCTGLVGLFVDFFVRLFTQLKFGVVQTSVEECSQKGCLALSLLELLGFNLTFVFLASLLVLIEPVAAGSGIPEVKCYLNGVKVPGIVRLRTLLCKVLGVLFSVAGGLFVEKEGPMIHSGSVVGAGLPQFQSISLRKIQFNFPYFRSDRDKRDFVSAGAAAGVAAAFGAPIGGTLFSLEEGSSFWNQGLTWKVLFCSMSATFTLNFFRSGIQFGSWGSFQLPGLLNFGEFKCSDSDKKCHLWTAMDLGFFVVMGVIGGLLGATFNCLNKRLAKYRMRNVHPKPKLVRVLESLLVSLVTTVVVFVASMVLGECRQMSSSSQIGNDSFQLQVTEDVNSSIKTFFCPNDTYNDMATLFFNPQESAILQLFHQDGTFSPVTLALFFVLYFLLACWTYGISVPSGLFVPSLLCGAAFGRLVANVLKSYIGLGHIYSGTFALIGAAAFLGGVVRMTISLTVILIESTNEITYGLPIMVTLMVAKWTGDFFNKGIYDIHVGLRGVPLLEWETEVEMDKLRASDIMEPNLTYVYPHTRIQSLVSILRTTVHHAFPVVTENRGNEKEFMKGNQLISNNIKFKKSSILTRAGEQRKRSQSMKSYPSSELRNMCDEHIASEEPAEKEDLLQQMLERRYTPYPNLYPDQSPSEDWTMEERFRPLTFHGLILRSQLVTLLVRGVCYSESQSSASQPRLSYAEMAEDYPRYPDIHDLDLTLLNPRMIVDVTPYMNPSPFTVSPNTHVSQVFNLFRTMGLRHLPVVNAVGEIVGIITRHNLTYEFLQARLRQHYQTI

Experiment: confocal colocalisation with GFP-Rab4, transfected HeLa/COS-1
Details: glycan lost; control: wild type

localisation_or_trafficking, no change:
B1, B2, B3, B4, B5, B6, B7
